According to patent US20190142902A1 (RELAXERA PHARMAZEUTISCHE GESELLSCHAFT MBH, published 2019):

Molecular target: T1, human relaxin receptor RXFP1 (relaxin family peptide receptor 1) (human, UniProt Q9HBX9 1-757)
T1 sequence (looked up): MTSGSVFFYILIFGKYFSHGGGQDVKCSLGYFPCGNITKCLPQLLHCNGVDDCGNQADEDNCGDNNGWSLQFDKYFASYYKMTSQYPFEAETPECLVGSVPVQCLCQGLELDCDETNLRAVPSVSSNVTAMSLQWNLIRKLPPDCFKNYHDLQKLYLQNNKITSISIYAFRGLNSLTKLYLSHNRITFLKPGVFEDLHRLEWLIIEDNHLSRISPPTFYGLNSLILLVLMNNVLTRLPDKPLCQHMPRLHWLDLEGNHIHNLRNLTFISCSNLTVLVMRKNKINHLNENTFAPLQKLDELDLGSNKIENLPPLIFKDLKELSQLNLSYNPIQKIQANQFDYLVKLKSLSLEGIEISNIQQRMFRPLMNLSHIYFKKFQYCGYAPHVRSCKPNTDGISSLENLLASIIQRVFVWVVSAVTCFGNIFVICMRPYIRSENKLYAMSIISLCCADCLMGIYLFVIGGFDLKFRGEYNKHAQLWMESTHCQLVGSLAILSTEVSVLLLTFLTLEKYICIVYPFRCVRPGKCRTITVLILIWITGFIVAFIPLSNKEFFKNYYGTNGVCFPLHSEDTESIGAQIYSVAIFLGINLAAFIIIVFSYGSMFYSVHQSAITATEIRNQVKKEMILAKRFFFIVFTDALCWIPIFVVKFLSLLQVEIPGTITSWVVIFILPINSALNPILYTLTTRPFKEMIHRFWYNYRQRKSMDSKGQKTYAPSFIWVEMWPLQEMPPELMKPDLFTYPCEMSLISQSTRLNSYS
Experiment: cell-based or functional assay

- cAMP response pEC50 (cAMP reporter gene assay, HEK293T cells overexpressing RXFP1): 10.2 pEC50 (negative decadic logarithm of the half-maximum concentration)
B1: -Asp-shRlx, single aa degradation product of synthetic human relaxin-2 (ligand)
chain 1: ELYSALANKCCHVGCTKRSLARFC
chain 2: SWMEEVIKLCGRELVRAQIAICGMSTWS
modifications: pGlu (pyroglutamate) at position 1
